{
  "source": "IntAct's records for PubMed 21390248",
  "parents": {"B1": {"name": "14-3-3 protein gamma (Mus musculus), P61982 (parent)", "chain": "MVDREQLVQKARLAEQAERYDDMAAAMKNVTELNEPLSNEERNLLSVAYKNVVGARRSSWRVISSIEQKTSADGNEKKIEMVRAYREKIEKELEAVCQDVLSLLDNYLIKNCSETQYESKVFYLKMKGDYYRYLAEVATGEKRATVVESSEKAYSEAHEISKEHMQPTHPIRLGLALNYSVFYYEIQNAPEQACHLAKTAFDDAIAELDTLNEDSYKDSTLIMQLLRDNLTLWTSDQQDDDGGEGNN"}},
  "data": [
    {"variants_of": "B1", "details": "with lrrk2_mouse Lrrk2, Q5S006", "values": [
      {"variant": "MVDREQLVQKARLAEQAERYDDMAAAMKNVTELNEPLSNEERNLLSVAYENVVGARRSSWRVISSIEQKTSADGNEKKIEMVRAYREKIEKELEAVCQDVLSLLDNYLIKNCSETQYESKVFYLKMKGDYYRYLAEVATGEKRATVVESSEKAYSEAHEISKEHMQPTHPIRLGLALNYSVFYYEIQNAPEQACHLAKTAFDDAIAELDTLNEDSYKDSTLIMQLLRDNLTLWTSDQQDDDGGEGNN", "note": "[K50E]", "effect of a mutation on the interaction": "disrupting interaction"},
      {"variant": "MVDREQLVQKARLAEQAERYDDMAAAMKNVTELNEPLSNEERNLLSVAYKNVVGARRSSWRVISSIEQKTSADGNEKKIEMVRAYREKIEKELEAVCQDVLSLLDNYLIKNCSETQYESKVFYLKMKGDYYRYLAEVATGEKRATVVESSEKAYSEAHEISKEHMQPTHPIRLGLALNYSDFYYEIQNAPEQACHLAKTAFDDAIAELDTLNEDSYKDSTLIMQLLRDNLTLWTSDQQDDDGGEGNN", "note": "[V181D]", "effect of a mutation on the interaction": "disrupting interaction"}
    ]}
  ]
}
